± gives the standard deviation of the averaged measurements.
Test: total protein half-life in vivo (active degradation + dilution); higher = more stable protein
[1] = E. coli NCM3722 delta-clpP delta-lon delta-hslV, growth: N-lim chemostat, doubling time 6 h
[2] = E. coli NCM3722 delta-clpP, growth: N-lim chemostat, doubling time 6 h
[3] = E. coli NCM3722 delta-lon, growth: N-lim chemostat, doubling time 6 h
[4] = E. coli NCM3722 delta-smpB, growth: N-lim chemostat, doubling time 6 h
[5] = wild type E. coli NCM3722, growth: C-lim chemostat, doubling time 3 h
[6] = wild type E. coli NCM3722, growth: C-lim chemostat, doubling time 6 h
[7] = wild type E. coli NCM3722, growth: C-lim chemostat, doubling time 12 h
[8] = E. coli NCM3722 delta-hslV, growth: N-lim chemostat, doubling time 6 h
[9] = wild type E. coli NCM3722, growth: N-lim chemostat, doubling time 6 h
[10] = wild type E. coli NCM3722, growth: N-lim chemostat, doubling time 12 h
[11] = wild type E. coli NCM3722, growth: P-lim chemostat, doubling time 6 h
[12] = wild type E. coli NCM3722, growth: P-lim chemostat, doubling time 12 h

Sequence	total protein half-life in vivo [1] [h]	total protein half-life in vivo [2] [h]	total protein half-life in vivo [3] [h]	total protein half-life in vivo [4] [h]	total protein half-life in vivo [5] [h]	total protein half-life in vivo [6] [h]	total protein half-life in vivo [7] [h]	total protein half-life in vivo [8] [h]	total protein half-life in vivo [9] [h]	total protein half-life in vivo [10] [h]	total protein half-life in vivo [11] [h]	total protein half-life in vivo [12] [h]
MAKYNEKELADTSKFLSFVLRHKPEAIGIVLDREGWADIDKLILCAQKAGKRLTRALLDTVVATSDKKRFSYSSDGRCIRAVQGHSTSQVAISFAEKTPPQFLYHGTASRFLDEIKKQGLIAGERHYVHLSADEATARKVGARHGSPVILTVKAQEMAKRGLPFWQAENGVWLTSTVAVEFLEW	4.33	1.59	2.51	1.27 ± 0.11	1.85	2.25 ± 0.44	5.97	–	–	–	–	–
MSRFVPRIIPFYLLLLVAGGTANAQSTFEQKAANPFDNNNDGLPDLGMAPENHDGEKHFAEIVKDFGETSMNDNGLDTGEQAKAFALGKVRDALSQQVNQHVESWLSPWGNASVDVKVDNEGHFTGSRGSWFVPLQDNDRYLTWSQLGLTQQDNGLVSNVGVGQRWARGNWLVGYNTFYDNLLDENLQRAGFGAEAWGEYLRLSANFYQPFAAWHEQTATQEQRMARGYDLTARMRMPFYQHLNTSVSLEQYFGDRVDLFNSGTGYHNPVALSLGLNYTPVPLVTVTAQHKQGESGENQNNLGLNLNYRFGVPLKKQLSAGEVAESQSLRGSRYDNPQRNNLPTLEYRQRKTLTVFLATPPWDLKPGETVPLKLQIRSRYGIRQLIWQGDTQILSLTPGAQANSAEGWTLIMPDWQNGEGASNHWRLSVVVEDNQGQRVSSNEITLTLVEPFDALSNDELRWEP	–	6.12	5.79 ± 1.8	5.36 ± 0.54	–	–	–	5.24 ± 1.5	6.73 ± 1	14.3 ± 1.6	–	–
MKLQNSFRDYTAESALFVRRALVAFLGILLLTGVLIANLYNLQIVRFTDYQTRSNENRIKLVPIAPSRGIIYDRNGIPLALNRTIYQIEMMPEKVDNVQQTLDALRSVVDLTDDDIAAFRKERARSHRFTSIPVKTNLTEVQVARFAVNQYRFPGVEVKGYKRRYYPYGSALTHVIGYVSKINDKDVERLNNDGKLANYAATHDIGKLGIERYYEDVLHGQTGYEEVEVNNRGRVIRQLKEVPPQAGHDIYLTLDLKLQQYIETLLAGSRAAVVVTDPRTGGVLALVSTPSYDPNLFVDGISSKDYSALLNDPNTPLVNRATQGVYPPASTVKPYVAVSALSAGVITRNTTLFDPGWWQLPGSEKRYRDWKKWGHGRLNVTRSLEESADTFFYQVAYDMGIDRLSEWMGKFGYGHYTGIDLAEERSGNMPTREWKQKRFKKPWYQGDTIPVGIGQGYWTATPIQMSKALMILINDGIVKVPHLLMSTAEDGKQVPWVQPHEPPVGDIHSGYWELAKDGMYGVANRPNGTAHKYFASAPYKIAAKSGTAQVFGLKANETYNAHKIAERLRDHKLMTAFAPYNNPQVAVAMILENGGAGPAVGTLMRQILDHIMLGDNNTDLPAENPAVAAAEDH [P0AD65]	7.59 ± 0.27	6.61 ± 0.79	6.37 ± 0.078	5.71 ± 0.077	3.03 ± 0.031	6.92 ± 1.1	11.8 ± 0.77	6.75 ± 0.56	6.5 ± 0.79	13.4 ± 0.88	6.24 ± 0.3	13.7 ± 1
MQTKKNEIWVGIFLLAALLAALFVCLKAANVTSIRTEPTYTLYATFDNIGGLKARSPVSIGGVVVGRVADITLDPKTYLPRVTLEIEQRYNHIPDTSSLSIRTSGLLGEQYLALNVGFEDPELGTAILKDGDTIQDTKSAMVLEDLIGQFLYGSKGDDNKNSGDAPAAAPGNNETTEPVGTTK	6.04 ± 0.2	6.2952 ± 0.0017	6.27 ± 0.51	6.07 ± 0.14	–	5.612 ± 0.038	12.5 ± 1.4	5.73 ± 1.1	6.08 ± 0.09	13.6 ± 1.8	5.72 ± 0.45	13.7 ± 0.79
MAIALVTGGSRGIGRATALLLAQEGYTVAVNYQQNLHAAQEVMNLITQAGGKAFVLQADISDENQVVAMFTAIDQHDEPLAALVNNAGILFTQCTVENLTAERINRVLSTNVTGYFLCCREAVKRMALKNGGSGGAIVNVSSVASRLGSPGEYVDYAASKGAIDTLTTGLSLEVAAQGIRVNCVRPGFIYTEMHASGGEPGRVDRVKSNIPMQRGGQAEEVAQAIVWLLSDKASYVTGSFIDLAGGK	–	5.48 ± 0.058	5.69 ± 0.45	4.82	3.03 ± 0.14	5.93	–	5.67	4.66 ± 0.41	8.32 ± 0.23	6.41 ± 0.74	11.2 ± 1.9
MHEITLCQRALELIEQQAAKHGAKRVTGVWLKIGAFSCVETSSLAFCFDLVCRGSVAEGCKLHLEEQEAECWCETCQQYVTLLTQRVRRCPQCHGDMLQIVADDGLQIRRIEIDQE [P0A700]	4.63	2.12	–	1.76	–	–	11.3	–	2.36	2.23	–	–
MPRLASAVLPLCSQHPGQCGLFPLEKSLDAFAARYRLAEMAEHTLDVQYYIWQDDMSGRLLFSALLAAAKRGVRVRLLLDDNNTPGLDDILRLLDSHPRIEVRLFNPFSFRLLRPLGYITDFSRLNRRMHNKSFTVDGVVTLVGGRNIGDAYFGAGEEPLFSDLDVMAIGPVVEDVADDFARYWYCKSVSPLQQVLDVPEGEMADRIELPASWHNDAMTHRYLRKMESSPFINHLVDGTLPLIWAKTRLLSDDPAKGEGKAKRHSLLPQRLFDIMGSPSERIDIISSYFVPTRAGVAQLLRMVRKGVKIAILTNSLAANDVAVVHAGYARWRKKLLRYGVELYELKPTREQSSTLHDRGITGNSGASLHAKTFSIDGKTVFIGSFNFDPRSTLLNTEMGFVIESETLAQLIDKRFIQSQYDAAWQLRLDRWGRINWVDRHAKKEIILKKEPATSFWKRVMVRLASILPVEWLL	5.59 ± 0.72	5.95 ± 0.048	5.31 ± 0.46	5.1 ± 0.35	2.78 ± 0.11	5.38 ± 0.64	–	5.92 ± 1.4	4.78 ± 0.52	11.1 ± 0.75	5.59 ± 0.044	–
MSELTDLLLQGPRSAPELRQRLAISQATFSRLVAREDRVIRFGKARATRYALLRPYRGIERIPVWRVDDTGKAHKFADIRLCWPQGSCLVTGADGDEQWFDGLPWYLTDLRPQGFLGRAWGRKLAAQLNLTDDIRLWQEEDVLYALTVFNGEYTGGWLVGEGNYQRWITAQHPAEIPLDQKLTHYEQLASDALAGEIVGSSAGGEQPKFTYYAQTPSGNKHVLVKFTVPQQTAVSQRWGDLLIAESIAAQILRDGGIHAIESTVLVTSNRQVFLEAERFDCKGNDGRLPIVSLEAVQSEFISSPGSWPQAMRRLCEQQLVTHQSVAQTEVIWAFGRLIANSDMHAGNLSFYLSEPPFALTPVYDMLPMVYAPNSAGMLRDAAIEVKFDLNVSKSAWLTAIPLAQQFWQTVARDPRISEAFRHIAQEMPEKIRQIEEKVARMGG	–	5.39 ± 0.31	5.71 ± 0.22	4.46 ± 0.29	2.95 ± 0.45	5.9 ± 1.3	10.9 ± 0.43	–	4.54 ± 0.54	9.16 ± 2.6	2.5	6.85 ± 3.4

Source: the supplement of paper PMC11246515
